Where a chain is given by its changes, count along the chain named.
T1: zcyto20 (human IL-28A) (human) (UniProt Q8IZJ0)
T1 sequence: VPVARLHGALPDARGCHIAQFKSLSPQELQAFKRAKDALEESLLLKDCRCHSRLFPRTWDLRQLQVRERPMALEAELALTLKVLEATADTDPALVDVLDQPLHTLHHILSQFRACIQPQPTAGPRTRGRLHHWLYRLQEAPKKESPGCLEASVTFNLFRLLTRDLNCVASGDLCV

T2: zcyto24 (mouse IL-28, SEQ ID NO: 8) (mouse) (UniProt Q4VK74)
T2 sequence: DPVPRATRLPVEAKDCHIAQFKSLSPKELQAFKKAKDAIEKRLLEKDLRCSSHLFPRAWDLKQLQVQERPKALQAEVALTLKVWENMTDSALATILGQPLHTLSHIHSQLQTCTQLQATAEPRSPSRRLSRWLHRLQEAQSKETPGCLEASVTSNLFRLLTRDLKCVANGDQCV

B1: IL-28B (SEQ ID NO: 6) (ligand)
chain: T1 sequence with H7R, R49K, H51R, M71V, V95G, F112L, Y135H
B2: human zcytor19-Fc homodimer soluble receptor (Fc fusion, not shown: a dimerising Fc or GST)
chain: RPRLAPPQNVTLLSQNFSVYLTWLPGLGNPQDVTYFVAYQSSPTRRRWREVEECAGTKELLCSMMCLKKQDLYNKFKGRVRTVSPSSKSPWVESEYLDYLFEVEPAPPVLVLTQTEEILSANATYQLPPCMPPLDLKYEVAFWKEGAGNKTLFPVTPHGQPVQITLQPAASEHHCLSARTIYTFSVPKYSKFSKPTCFLLEVPEANWA
B3: murine zcytor19-Ig homodimer soluble receptor (Fc fusion, part only; not given: Ig portion, UniProt Q8CGK5 21-227, looked up, part only)
chain, part: RPRLAPPRNVTLFSQNFTVYLTWLPGLGSPPNVTYFVTYQSYIKTGWRPVEHCAGIKALVCPLMCLKKLNLYSKFKGRVQAASAHGRSPRVESRYLEYLFDVELAPPTLVLTQMEKILRVNATYQLPPCMPSLELKYQVEFWKEGLGSKTLFPDTPYGQPVQIPLQQGASRRHCLSARTVYTLIDIKYSQFSEPSCIFLEAPGDKRA

How the values were obtained:
Test in all cases: cell-based or functional assay
[1] = molecular target: human IL-28 receptor on 293 HEK cells (transfected IL-28 receptor alpha subunit with endogenous CRF2-4) (human)
Sequence of human IL-28 receptor on 293 HEK cells (transfected IL-28 receptor alpha subunit with endogenous CRF2-4) (human) (Q8IU57 whole entry, chain 1 of 2): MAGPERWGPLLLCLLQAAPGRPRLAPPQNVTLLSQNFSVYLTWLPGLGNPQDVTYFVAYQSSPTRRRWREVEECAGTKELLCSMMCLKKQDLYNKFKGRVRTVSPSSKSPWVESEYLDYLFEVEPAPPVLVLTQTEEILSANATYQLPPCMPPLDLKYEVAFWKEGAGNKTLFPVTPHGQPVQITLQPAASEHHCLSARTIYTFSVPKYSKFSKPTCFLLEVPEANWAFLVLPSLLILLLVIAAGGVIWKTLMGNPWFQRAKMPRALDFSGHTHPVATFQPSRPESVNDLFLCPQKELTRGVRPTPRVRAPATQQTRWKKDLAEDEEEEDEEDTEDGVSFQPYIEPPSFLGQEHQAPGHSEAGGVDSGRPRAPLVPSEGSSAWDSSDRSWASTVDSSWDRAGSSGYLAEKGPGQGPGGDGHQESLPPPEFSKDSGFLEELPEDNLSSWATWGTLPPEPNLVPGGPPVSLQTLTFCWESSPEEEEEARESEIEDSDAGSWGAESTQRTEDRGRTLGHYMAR
Sequence of human IL-28 receptor on 293 HEK cells (transfected IL-28 receptor alpha subunit with endogenous CRF2-4) (human) (Q08334 whole entry, chain 2 of 2, further chain): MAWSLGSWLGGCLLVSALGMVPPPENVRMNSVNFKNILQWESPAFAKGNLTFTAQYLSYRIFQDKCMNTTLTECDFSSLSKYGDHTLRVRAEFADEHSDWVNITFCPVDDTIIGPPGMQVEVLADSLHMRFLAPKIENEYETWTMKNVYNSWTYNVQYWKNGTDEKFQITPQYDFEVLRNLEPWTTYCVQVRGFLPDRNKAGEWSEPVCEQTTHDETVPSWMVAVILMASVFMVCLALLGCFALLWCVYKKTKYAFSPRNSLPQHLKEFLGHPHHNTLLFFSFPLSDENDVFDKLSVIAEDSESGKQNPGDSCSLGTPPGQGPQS

[2] = molecular target: T1, zcyto20 (human IL-28A) (human)
[3] = molecular target: zcyto21 (SEQ ID NO:15) (human) (UniProt Q8IU54)
Sequence of UniProt Q8IU54 (Q8IU54 other isoform, or with tags, fused parts or gaps): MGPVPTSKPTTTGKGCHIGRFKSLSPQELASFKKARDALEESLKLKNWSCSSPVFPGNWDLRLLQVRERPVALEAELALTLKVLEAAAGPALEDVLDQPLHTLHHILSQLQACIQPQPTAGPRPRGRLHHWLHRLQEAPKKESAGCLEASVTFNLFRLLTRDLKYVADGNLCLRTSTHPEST

[4] = molecular target: T2, zcyto24 (mouse IL-28, SEQ ID NO: 8) (mouse)

Molecule | ISRE Signaling of Transfected 293 Cells (Fold Induction), ISRE-Luc./IL-28R, ligand 100 ng/ml (fold induction) [1] | Percent Inhibition of Ligand-induced ISRE Signaling by Soluble Receptors (10 ng/ml ligand, 10 micrograms/ml soluble receptor) [2] | Percent Inhibition of Ligand-induced ISRE Signaling by Soluble Receptors (10 ng/ml ligand, 10 micrograms/ml soluble receptor) [3] | Percent Inhibition of Ligand-induced ISRE Signaling by Soluble Receptors (10 ng/ml ligand, 10 micrograms/ml soluble receptor) [4] | ISRE Signaling of Transfected 293 Cells (Fold Induction), ISRE-Luc./IL-28R, ligand 125 ng/ml (fold induction) [1]
huIL10 (from UniProt P22301 19-178) (ligand) | 0.5 | – | – | – | –
human CRF2-4-Fc homodimer soluble receptor (Fc fusion) | – | 80% | 79% | 82% | –
human zcytor19-Fc/human CRF2-4-Fc heterodimer soluble receptor (Fc fusion) | – | 16% | 16% | 47% | –
zcyto10 (ligand) | – | – | – | – | 1
B1 | – | – | – | – | 104
B2 | – | 92% | 45% | 90% | –
B3 | – | 91% | 103% | 89% | –
